According to patent US20050009042A1 (AVENTIS PHARMA S A, published 2005):
Blank lines part the entries; values can stand above or below the molecule they belong to.

T1: MT2R-Luc, protein from fusion of the melatonin receptor MT2 with luciferase (UniProt P49286 1-362)
T1 construct: whole, on cells; Control fusion protein; also called melatonin-Luc MT2 receptor
T1 sequence (looked up): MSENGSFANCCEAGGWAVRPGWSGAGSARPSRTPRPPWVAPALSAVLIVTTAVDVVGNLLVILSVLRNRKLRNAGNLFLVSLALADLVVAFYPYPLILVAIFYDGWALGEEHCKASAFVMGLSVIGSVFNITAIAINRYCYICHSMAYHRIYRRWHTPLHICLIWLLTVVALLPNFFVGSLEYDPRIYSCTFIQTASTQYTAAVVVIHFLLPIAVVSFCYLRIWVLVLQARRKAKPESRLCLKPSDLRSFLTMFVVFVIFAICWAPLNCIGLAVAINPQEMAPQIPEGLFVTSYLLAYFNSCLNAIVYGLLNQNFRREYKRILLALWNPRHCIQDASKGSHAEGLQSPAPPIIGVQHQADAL

B1: MYO47-Luc (other)
chain: MAGIKALISLSFGGAIGLMFLMLGCALPIYNKYWPLFVLFFYILSPIPYCIARRLVDDTDAMSNACKELAIFLTTGIVVSAFGLPIVFARAHLIEWGACALVLTGNTVIFATILGFFLVFGSNDDFSWQQW
notes: also called MY047-Rluc; not shown: Renilla luciferase (vector pcDNA3-Rluc)
B2: MYO47-YFP (other)
chain: B1 chain
notes: also called MY047-YFP; not shown: YFP (Topaz, vector pcDNA3-YFP)
B3: OB-RGRP-YFP (other)
chain: MAGVKALVALSFSGAIGLTFLMLGCALEDYGVYWPLFVLIFHAISPIPHFIAKRVTYDSDATSSACRELAYFFTTGIVVSAFGFPVILARVAVIKWGACGLVLAGNAVIFLTIQGFFLIFGRGDDFSWEQW
notes: Expressed in HeLa or HEK cells from pcDNA3-OB-RGRP-YFP; also called OB-RGRP tagged with YFP at its C-terminal tail; OB-RGRP-YFB; not shown: YFP coding region from vector pGFPtpz-N1 (Cytogem-Topaze, Packard)
B4: OB-RGRP-Luc (other)
chain: B3 chain
notes: Expressed in cells from pcDNA3-OB-RGRP-Luc; also called OB-RGRP-Rluc; not shown: Renilla luciferase, coding region from vector pRL-CMV (Promega)
B5: YFP-OB-RGRP (other)
chain: B3 chain
notes: The construction of this plasmid is not described on its own; only the double fusion YFP-OB-RGRP-Luc is; also called OB-RGRP tagged at the N-terminal with YFP; not shown: YFP (Topaz, from pGFPtpz-N1) at the N-terminus
B6: 6Myc-OB-RGRP (4TM) (other)
chain: B3 chain
notes: not shown: The N-terminal 6xMyc tag (the 6myc fragment of pCDNA3-RSV-6Myc) and its junction

Columns and labels:
OB-Rl = experiment: cell-based or functional assay
[1] = molecular target: T2, IR-YFP, protein from fusion of the insulin receptor with YFP (UniProt P06213 28-1382); experiment: BRET in living cells, equimolar coexpression
T2 construct: whole, on cells; Control fusion protein; also called construct of the insulin receptor tagged with YFP; not shown: YFP
Procedure: (§1) 48 h after transfection, the COS-7, HeLa or HEK 293 cells expressing the OB-R fusion proteins were detached and washed in PBS. 1-2×10⁵ cells were distributed into wells of optiplate plates (96-well, Packard Instrument Company, Meriden, Conn.) in the presence or absence of the ligands, and incubated at 25° C. Alternatively, the same procedure was carried out with membranes prepared from the cells expressing the various constructs. The substrate, coelenterazine h (Molecular Probes, Eugene, Oreg.), was added at a final concentration of 5 μmol.L⁻¹ and the readings were carried out with a Fusion™ luminometer/fluorimeter (Packard Instrument Company, Meriden, Conn.), which makes it possible to measure luminescence through two filters (luciferase filter: 485±10 nm; YFP filter: 530±12.5 nm). The BRET ratio was defined as the difference in emission at 530 nm/485 nm of the cells cotransfected with the Luc and YFP fusion proteins and the emission at 530 nm/485 nm of the Luc fusion protein transfected alone into the cells. The results are expressed as milliBRET units (mBU), 1 mBRET corresponding to the values of the differences in the ratios multiplied by 1000.
(§2) We used BRET technology to study a possible interaction between OB-R and OB-RGRP in living cells. An energy transfer was constitutively observed in the cells coexpressing the OB-Rₛ-Luc construct and the OB-RGRP-YFP construct, indicating proximity of the interaction partners (FIG. 7). The same results were obtained in cells coexpressing OB-Rₛ-Luc and the MYO47-YFP construct, and also in the reverse orientation: in cells coexpressing OB-RGRP-Luc and OB-Rₛ-YFP, or in cells coexpressing MYO47-Luc and OB-Rₛ-YFP. The specificity of these interactions was confirmed by the lack of energy transfer between OB-Rₛ-Luc, OB-RGRP-Luc, MYO47-Luc and a construct of the insulin receptor tagged with YFP (Boute et al. (2001) Mol Pharmacol 60, 640-645), and also in the reverse orientation: by the lack of energy transfer between a construct of the insulin receptor tagged with Luc and the OB-Rₛ-YFP, OB-RGRP-YFP and MYO47-YFP construct.

[2] = molecular target: T3, construct of the insulin receptor tagged with Luc (UniProt P06213 28-1382); experiment: BRET in living cells, equimolar coexpression
T3 construct: whole, on cells; Control fusion protein; also called IR-Luc
Procedure: as §1, §2

[3] = molecular target: T1, MT2R-Luc, protein from fusion of the …; experiment: BRET in living HEK cells, equimolar coexpression
Procedure: (§3) Study of the oligomerization of OB-RGRP in live HEK cells, by BRET technology. FIG. 6a: the fusion proteins indicated were coexpressed at an equimolar ratio, and BRET measurement experiments were carried out. FIG. 6b: constant amounts of the plasmid OB-RGRP-Luc were coexpressed with increasing amounts of the plasmid OB-RGRP-YFP and BRET measurements were carried out. MT2R-Luc, protein from fusion of the melatonin receptor MT2 with luciferase.
as §1, with “The BRET ratio was defined as the difference in emission at 530 nm/485 nm of the cells cotransfected with the Luc and YFP fusion proteins and the emission at 530 nm/485 nm of the Luc fusion protein transfected alone into the cells.” left out, “1000. […]” for “1000.”

OB-RGRP-Luc [4] = molecular target: B4; experiment: BRET in living HEK cells; the signal also rises hyperbolically to saturation with the OB-RGRP-YFP/OB-RGRP-Luc ratio
Procedure: as §3
as §1, with “The BRET ratio was defined as the difference in emission at 530 nm/485 nm of the cells cotransfected with the Luc and YFP fusion proteins and the emission at 530 nm/485 nm of the Luc fusion protein transfected alone into the cells.” left out, “1000. […]” for “1000.”

[5] = molecular target: the molecule itself; experiment: SDS-PAGE and anti-YFP immunoblot of HeLa cell lysates, with or without DSP crosslinker; self-association
Procedure: (§4) Study of the oligomerization of OB-RGRP with SDS-PAGE experiments and immunoprecipitations. FIG. 4a: the cells expressing the fusion proteins indicated were treated or not treated with 2 mmol.L⁻¹ dithiobis(succinimidyl propionate) (DSP) in PBS (1×, pH7.4) in order to crosslink the protein complexes. The proteins were separated by SDS-PAGE and the proteins from fusions with YFP were detected using a specific anti-YFP antibody. FIG. 4b: the cells expressing the construct 6Myc-OB-RGRP were solubilized with 1% of digitonin or 5% of SDS and the solubilized material was immunoprecipitated with an anti-myc antibody. The precipitates were subjected to separation by SDS-PAGE and the proteins tagged with myc were detected with an anti-myc antibody.
(§5) The total lysates were prepared by washing the cells once with cold PBS (pH 7.4) and denatured by adding loading buffer (30 mmol.L⁻¹ Tris HCl, pH 6.8, 1% glycerol, 5% SDS, 50 mmol.L⁻¹ DTT and 0.05% bromophenol blue). The total lysates or the immunoprecipitates were incubated for 10 minutes at 90° C. and then loaded onto 10% acrylamide gel for separation by electrophoresis (SDS-PAGE).
OB-RGRP was tagged with YFP at its C-terminal tail and expressed in HeLa cells. The proteins were separated by polyacrylamide gel electrophoresis under denaturing conditions (SDS-PAGE) and immunoblotting experiments were carried out with an anti-YFP antibody. […]

OB-RGRP-Luc [6] = molecular target: B4; experiment: BRET in living HEK cells, equimolar coexpression
Procedure: as §3
as §1, with “The BRET ratio was defined as the difference in emission at 530 nm/485 nm of the cells cotransfected with the Luc and YFP fusion proteins and the emission at 530 nm/485 nm of the Luc fusion protein transfected alone into the cells.” left out, “1000. […]” for “1000.”

[7] = molecular target: the molecule itself; experiment: SDS-PAGE and anti-YFP immunoblot; self-association
Procedure: as §4, §5

[8] = molecular target: the molecule itself; experiment: anti-myc immunoprecipitation, SDS-PAGE and anti-myc blot; self-association

activation of a luciferase reporter gene under STAT3-response elements, EC50 (OB-Rl): 50 pM
activation of a luciferase reporter gene under STAT5-response elements, EC50 (OB-Rl): 50 pM
increase in the basal activation of the reporter gene for STAT3 (OB-Rl): 1.5 fold
Molecule: leptin (ligand)

Molecule: B1
binding result [1]: no binding

Molecule: B2
binding result [2]: no binding

Molecule: B3
binding result [3]: no binding
binding result (OB-RGRP-Luc [4]): binds
binding result [5]: binds
binding result [2]: no binding

Molecule: B4
binding result [1]: no binding

Molecule: B5
binding result (OB-RGRP-Luc [6]): binds
binding result [7]: binds

Molecule: B6
binding result [8]: binds
